Consider 3 molecules from PMC11961692.

Data set [1] concerns the target T1, hEndoU E284A (Homo sapiens, UniProt P21128 135-410, E284A).
T1 sequence: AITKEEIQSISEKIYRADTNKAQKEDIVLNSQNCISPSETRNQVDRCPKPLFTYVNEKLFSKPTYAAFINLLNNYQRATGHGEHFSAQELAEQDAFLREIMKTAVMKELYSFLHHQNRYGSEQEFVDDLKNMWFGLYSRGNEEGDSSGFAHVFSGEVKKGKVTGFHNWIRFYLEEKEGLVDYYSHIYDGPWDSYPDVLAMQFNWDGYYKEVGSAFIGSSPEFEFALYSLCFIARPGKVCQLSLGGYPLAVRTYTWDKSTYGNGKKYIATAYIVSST
Put plainly: EMSA. On the technique in general: Mobility shift assays separate free from complexed probe on a gel.

For data set [2], the target named is T2, hEndoU H285A/R385K (Homo sapiens, UniProt P21128 135-410, H285A;R385K).
T2 sequence: T1 sequence with A150E, H151A, R251K
Put plainly: EMSA.

For data set [3], the target named is T3, hEndoU H285A/R385A (Homo sapiens, UniProt P21128 135-410, H285A;R385A).
T3 sequence: T1 sequence with A150E, H151A, R251A
As to the kind of experiment: EMSA.

Data set [4] has as its target T4, hEndoU H285A (Homo sapiens, UniProt P21128 135-410, H285A).
T4 sequence: T1 sequence with A150E, H151A
As to the kind of experiment: EMSA.

For data set [5], the target named is T5, hEndoU WT (Homo sapiens, UniProt P21128 135-410).
T5 sequence: T1 sequence with A150E
Put plainly: NMR.

In data set [6] the target is T5, hEndoU WT. As to the kind of experiment: NMR. The source holds these as a separate data set.

Changes are numbered by the printed parent chain. Read-outs that look alike come from different tables or passages of the source.

With CACGAGUACCAGAAAACCAAAA (ssRNA) [single-uridylate RNA], the binding result in data set [1], in data set [2], in data set [3] and in data set [4] was “binds” throughout.
Consider UUUUUU (XNA, 2'-F at all nucleotides) [2'-F (U)6], for which, in data set [5], the binding result is “binds”.
For the molecule AAGUCC (XNA, 2'-F at all nucleotides) [2'-F RNA AAGUCC], in data set [6], the binding result is “binds”.
